# Measured values as given in publication doi:10.1101/2024.10.10.617581.
# Target: Ib, membrane-binding component of the Iota toxin from Clostridium perfringens (N-terminal cleaved, active) (Clostridium perfringens)
# Assay: cryo-EM structure
substance,measurement,value
"Ib, membrane-binding component of the Iota toxin from Clostridium perfringens (N-terminal cleaved, active) (natural protein)",stoichiometry N,7
